For experiment [1], the target named is T1, human cholecystokinin-1 receptor (human), P32238.
T1 chain: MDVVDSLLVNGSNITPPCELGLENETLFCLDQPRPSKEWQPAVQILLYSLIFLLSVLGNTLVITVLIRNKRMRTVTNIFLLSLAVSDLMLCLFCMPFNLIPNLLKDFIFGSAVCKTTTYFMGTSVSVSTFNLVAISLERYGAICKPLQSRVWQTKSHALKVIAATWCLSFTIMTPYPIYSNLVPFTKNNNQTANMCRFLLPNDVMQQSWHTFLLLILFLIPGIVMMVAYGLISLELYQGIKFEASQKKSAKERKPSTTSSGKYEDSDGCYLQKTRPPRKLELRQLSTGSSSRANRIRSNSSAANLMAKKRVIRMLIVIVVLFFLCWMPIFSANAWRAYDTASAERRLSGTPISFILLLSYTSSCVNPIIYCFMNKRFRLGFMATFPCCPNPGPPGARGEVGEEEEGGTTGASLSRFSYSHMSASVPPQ
As to the kind of experiment: cell-based or functional assay.

Experiment [2] deals with T2, human cholecystokinin-2 receptor (human), P32239.
T2 chain: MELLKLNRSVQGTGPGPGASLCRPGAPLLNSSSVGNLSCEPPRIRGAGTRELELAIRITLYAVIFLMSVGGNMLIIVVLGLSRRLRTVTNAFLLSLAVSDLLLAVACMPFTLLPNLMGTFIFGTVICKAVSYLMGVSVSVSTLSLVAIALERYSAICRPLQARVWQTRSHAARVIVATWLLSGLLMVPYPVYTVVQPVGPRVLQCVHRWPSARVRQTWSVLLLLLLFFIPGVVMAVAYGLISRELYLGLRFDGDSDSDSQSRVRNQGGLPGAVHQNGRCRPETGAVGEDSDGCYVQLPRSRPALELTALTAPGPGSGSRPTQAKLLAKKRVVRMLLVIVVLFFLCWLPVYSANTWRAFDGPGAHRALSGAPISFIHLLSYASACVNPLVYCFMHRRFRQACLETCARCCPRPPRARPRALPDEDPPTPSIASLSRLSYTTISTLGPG
Description: cell-based or functional assay.

Experiment [3] concerns the target T1, human cholecystokinin-1 receptor …. Description: SPA competition vs [125I]-CCK-8s, membranes.
For experiment [4], the target named is T3, human cholecystokinin-2 receptor (human, UniProt P32239 1-447).
T3 sequence (looked up): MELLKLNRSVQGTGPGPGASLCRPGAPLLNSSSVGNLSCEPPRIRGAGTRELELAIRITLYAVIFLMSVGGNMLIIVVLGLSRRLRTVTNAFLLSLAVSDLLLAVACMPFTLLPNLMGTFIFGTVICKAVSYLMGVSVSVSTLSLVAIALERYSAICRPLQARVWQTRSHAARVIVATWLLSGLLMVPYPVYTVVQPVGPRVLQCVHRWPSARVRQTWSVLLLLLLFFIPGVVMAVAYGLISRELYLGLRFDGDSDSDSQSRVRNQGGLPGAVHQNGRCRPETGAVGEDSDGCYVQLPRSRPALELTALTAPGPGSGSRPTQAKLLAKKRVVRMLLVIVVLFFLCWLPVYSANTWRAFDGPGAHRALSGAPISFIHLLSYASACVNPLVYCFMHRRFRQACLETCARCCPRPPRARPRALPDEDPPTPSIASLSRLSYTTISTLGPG
Description: cell-based or functional assay.

Experiment [5] addresses T4, human cholecystokinin-1 receptor (human, UniProt P32238 1-428).
T4 sequence (looked up): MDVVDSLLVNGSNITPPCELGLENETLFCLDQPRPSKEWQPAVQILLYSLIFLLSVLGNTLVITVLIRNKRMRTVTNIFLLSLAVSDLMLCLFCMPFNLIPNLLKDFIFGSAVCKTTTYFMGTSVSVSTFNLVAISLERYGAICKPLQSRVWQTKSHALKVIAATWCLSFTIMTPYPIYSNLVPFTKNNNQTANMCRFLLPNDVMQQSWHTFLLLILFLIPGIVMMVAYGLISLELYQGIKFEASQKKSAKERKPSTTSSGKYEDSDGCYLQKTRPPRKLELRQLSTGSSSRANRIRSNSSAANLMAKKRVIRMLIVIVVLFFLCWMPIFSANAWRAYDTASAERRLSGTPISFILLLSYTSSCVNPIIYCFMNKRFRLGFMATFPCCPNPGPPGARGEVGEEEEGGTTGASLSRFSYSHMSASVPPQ
As to the kind of experiment: cell-based or functional assay.

Experiment [6] concerns the target T4, human cholecystokinin-1 receptor. As to the kind of experiment: SPA competition vs [125I]-CCK-8s, membranes. As for the experimental part: (§1) CCK receptor binding assays were performed in 96-well Optiplates (Cat #6005290, PerkinElmer, Waltham, Mass., USA) in a total volume of 200 μl per well.
(§2) The plates were sealed and incubated in the dark at +22° C. for 2 hours on a IKA MTS plate shaker (IKA-Werke D-79219 Staufen) set at 300 rpm and thereafter centrifuged at 1500 rpm for 10 minutes in a Heraeus Multifuge 3s centrifuge. SPA bead light emission was measured in a TopCount NXT (PerkinElmer) for 2 min/well after a delay of 60 min.

The target of experiment [7] is T3, human cholecystokinin-2 receptor. As to the kind of experiment: SPA competition vs [125I]-CCK-8s, membranes. How it is done: as §1, §2

Starred links: 1 amine or outer side, 2 acyl side, 3 side chain; linkers in the order of their positions; H or OH if unused. Non-standard residues stand in square brackets, D forms with d. No end group written: not given here. *: point of attachment. sY = N[C@@H](Cc1ccc(OS(=O)(=O)O)cc1)C(=O)O; C18 diacid = O=C(O)CCCCCCCCCCCCCCCCC(=O)*; γGlu = O=C(O)[C@H](CCC(=O)[*:2])N[*:1]; NMeF = CN[C@@H](Cc1ccccc1)C(=O)O; dNMeD = CN[C@H](CC(=O)O)C(=O)O; Nle = CCCC[C@H](N)C(=O)O; AEEA = NCCOCCOCC(=O)O

B1: 2-[2-[2-[[2-[2-[2-[[(4S)-4-Carboxy-4-(17-carboxyheptadecanoylamino)butanoyl]amino]ethoxy]ethoxy]acetyl]amino]ethoxy]ethoxy]acetyl-Asp-sTyr-Leu-Gly-Trp-Ala-DMeAs … (peptide)
peptide: {C18 diacid-γGlu-AEEA-AEEA}-D[sY]LGWA[DMeAsp][NMeF]-NH2
As to B1, the EC50 (CCK-1R) in experiment [1] worked out at 0.17 nM. This molecule also registered an EC50 (CCK-2R) in experiment [2] of 880 nM. Moreover, the concentration for half-maximal inhibition (IC50) (commonly the point on the concentration scale where inhibition reaches its midpoint) in experiment [3] stood at 0.65 nM.

B2: Asp-sTyr-Leu-Gly-Trp-Leu-DMeAsp-MePhe-amide (peptide)
peptide: D[sY]LGWL[DMeAsp][NMeF]-NH2
In the case of B2, in experiment [4], the EC50 (CCK-2R) was > 1000 nM. Further, the EC50 (CCK-1R) in experiment [1] was 0.25 nM. Besides, the IC50 in experiment [3] is 0.042 nM.

B3: Asp-sTyr-Leu-Gly-Trp-Val-DMeAsp-MePhe-amide (peptide)
peptide: D[sY]LGWV[DMeAsp][NMeF]-NH2
As for B3, in experiment [4], the EC50 (CCK-2R) is > 1000 nM. For the same molecule, in experiment [1], the EC50 (CCK-1R) was determined as 0.34 nM. Besides, the IC50 in experiment [3] amounted to 0.62 nM.

B4: Asp-sTyr-Leu-Gly-Trp-Ala-DMeAsp-MePhe-amide (peptide)
peptide: D[sY]LGWA[DMeAsp][NMeF]-NH2
Consider B4, for which, in experiment [1], the EC50 (CCK-1R) is 0.22 nM. Besides, in experiment [2], the EC50 (CCK-2R) was > 1000 nM. The molecule further yielded an IC50 in experiment [3] of 0.53 nM.

B5: 2-[2-[2-[[2-[2-[2-[[(4S)-4-Carboxy-4-(17-carboxyheptadecanoylamino)butanoyl]amino]ethoxy]ethoxy]acetyl]amino]ethoxy]ethoxy]acetyl-Asp-sTyr-Leu-Gly-Trp-Gln-DMeAs … (peptide)
peptide: {C18 diacid-γGlu-AEEA-AEEA}-D[sY]LGWQ[DMeAsp][NMeF]-NH2
For B5, the EC50 (CCK-1R) in experiment [1] came out at 0.17 nM. In experiment [2], the EC50 (CCK-2R) was > 1000 nM. In experiment [3], the IC50 turned out to be 0.084 nM.

B6: Asp-sTyr-Leu-Gly-Trp-Pro-DMeAsp-MePhe-amide (peptide)
peptide: D[sY]LGWP[DMeAsp][NMeF]-NH2
Take B6: in experiment [4], the EC50 (CCK-2R) was > 1000 nM. In experiment [1], the EC50 (CCK-1R) worked out at 0.34 nM. The molecule also displayed an IC50 in experiment [3] of 0.11 nM.

B7: Asp-sTyr-Leu-Gly-Trp-Gln-DMeAsp-MePhe-amide (peptide)
peptide: D[sY]LGWQ[DMeAsp][NMeF]-NH2
B7 yielded an EC50 (CCK-1R) in experiment [1] of 0.15 nM. Besides, the EC50 (CCK-2R) in experiment [2] is > 1000 nM. For the same molecule, the IC50 in experiment [3] turned out to be 0.075 nM.

B8: 2-[2-[2-[[2-[2-[2-[[(4S)-4-Carboxy-4-(17-carboxyheptadecanoylamino)butanoyl]amino]ethoxy]ethoxy]acetyl]amino]ethoxy]ethoxy]acetyl-sTyr-Nle-Gly-Trp-Nle-DMeAsp-Me … (peptide)
peptide: {C18 diacid-γGlu-AEEA-AEEA}-[sY][Nle]GW[Nle][dNMeD][NMeF]-NH2
SMILES: CCCC[C@H](NC(=O)[C@H](Cc1ccc(OS(=O)(=O)O)cc1)NC(=O)COCCOCCNC(=O)COCCOCCNC(=O)CC[C@H](NC(=O)CCCCCCCCCCCCCCCCC(=O)O)C(=O)O)C(=O)NCC(=O)N[C@@H](Cc1c[nH]c2ccccc12)C(=O)N[C@@H](CCCC)C(=O)N(C)[C@H](CC(=O)O)C(=O)N(C)[C@@H](Cc1ccccc1)C(N)=O
notes: X = Nle or Nal
As to B8, in experiment [5], the “EC50 (CCK-1R)” value was 0.37 nM. In addition, in experiment [4], the “EC50 (CCK-2R)” value was 440 nM. Besides, the figures for the half-inhibitory concentration (IC50) in experiment [6] and in experiment [7] were 0.039 nM and 6500 nM, respectively.

Source of the values: US20170008928A1, “NOVEL PEPTIDES AND PEPTIDE DERIVATIVES AND USES THEREOF” (Novo Nordisk A/S, priority 2015, published 2017).
